One block for each molecule: values may come before it.
Target: Dyed casein

Molecule: 55 kD cellobiohydrolase (pI 4.4), CBH1, Chrysosporium lucknowense (enzyme)
activity toward dyed casein, 50° C., arbitrary units/mg (arbitrary units/mg): 0

activity toward dyed casein, 50° C., arbitrary units/mg (arbitrary units/mg): 0
B1: 25 kD endoglucanase (pI 4.1), C1-EG5, Family 45, Chrysosporium lucknowense (enzyme)
chain: QLSGSGQTTRYWDCCKPSCAWPGKGPSSPVQACDKNDNPLNDGGSTRSGCDAGGSAYMCSSQSPWAVSDELSYGWAAVKLAGSSESQWCCACYELTFTSGPVAGKKMIVQATNTGGDLGDNHFDLAIPGGGVGIFNACTDQYGAPPNGWGDRYGGIHSKEECESFPEALKPGCNWRFDWFQNADNPSVTFQEVACPSELTSKSGCSR

activity toward dyed casein, 50° C., arbitrary units/mg (arbitrary units/mg): 0
B2: 43 kD endoglucanase (pI 4.2), C1-EG6, Family 6, Chrysosporium lucknowense (enzyme)
chain: QASAGCASAVTLDASTNVFQQYTLHPNNFYRAEVEAAAEAISDSALAEKARKVADVGTFLWLDTIENIGRLEPALEDVPCENIVGLVIYDLPGRDCAAKASNGELKVGELDRYKTEYIDKIAEILKAHSNTAFALVIEPDSLPNLVTNSDLQTCQQSASGYREGVAYALKQLNLPNVVMYIDAGHGGWLGWDANLKPGAQELASVYKSAGSPSQVRGISTNVAGWNAWDQEPGEFSDASDAQYNKCQNEKIYINTFGAELKSAGMPNHAIIDTGRNGVTGLRDEWGDWCNVNGAGFGVRPTANTGDELADAFVWVKPGGESDGTSDSSAARYDSFCGKPDAFKPSPEAGTWNQAYFEMLLKNANPSF

— US8268585B2
